Assay results taken from patent US20200277374A1 (Alector, published 2020).

B1: anti-Siglec-7 antibody 3E11 (antibody, V domains shown)
VH: QVQLQQSGAELARPGASVKLSCKASGYIFTDYGITWVKQRTGQGLEWIGEISPRSGETYFNENYRVKATLTADKSSSTAYMQLFSLTSEDSAVYFCAREGNPFTYWGHGTLVTVSA
VL: DVZMTQTPLSLPVSLGDQASISCRSSQSLVHSTGNTYLHWYLQKPGQSPKLLIYKVSNRFCGVPDRFSGSGAGTDFTLKISRVEAEDLGVYFCSQNTHVPYTFGGGTKLEIK
notes: Variable domains assembled from FR and CDR entries
B2: anti-Siglec-7 antibody 7A3 (antibody, V domains shown)
VH: LVZSGGALVKPGGSLKLSCAASGFTFSNYAMSWVRQTPEKRLEWVASISSGGSYNYYPDSVKGRFTISRDNARNTLYLQMSSLRSKDTAMYYCASQSYGSSYWYFDVWGAGTTVTVSS
VL: DIQMTQZPATLSVTPGDRVSLSCRASQSISEYLHWYHQKSHESPRLLIKFASQSICGIPSRFSGSGSGSDFTLTINSVEPEDVGVYYCQNGHNFPYTFGGGTKLEIK
notes: Variable domains assembled from FR and CDR entries; VL FR1 and VH FR1 hold Z and VH FR1 looks shortened at its N-terminus
B3: anti-Siglec-7 antibody 2G1 (antibody, V domains shown)
VH: EVKLVESGGTLVKPGGSLKISCAASGFTFSNYDMSWVRQNPEKRLEWVATISSGGDYTYYPDIFKGRFTISRDDAKNALYLQMSSLRSEDTALYYCARHGYGNYDWYFDVWGAGATVTVSS
VL: VLTQSPAIMSASPGEKVTMTCSANSSFIYMYWYQQKPGSSPRLLIFDTSNLASGVPIRFSGSGSGTSYSLTISRMEAEDTATYYCQQWSSSPLTFGGGTKLELK
notes: Variable domains assembled from FR and CDR entries; the printed VL FR1 looks shortened at its N-terminus; also called 2G11 (misprint in text)

What was measured:
[1] = target: T1, human Siglec-7 expressed on human cells (primary monocytes, dendritic cells, macrophages, NK cells, … (human, UniProt Q9Y286 19-467)); assay: cell-based or functional assay
[2] = target: T1, human Siglec-7 expressed on human cells …; assay: cell-based or functional assay; remark: listed apart in the source
[3] = target: T1, human Siglec-7 expressed on human cells …; assay: FACS, human primary monocytes, 10 ug/ml mAb
Protocol: (§1) Initial characterization of Siglec-7 antibodies involved determining their ability to bind Siglec-7 expressed on human primary monocytes, human primary macrophages, human primary dendritic cells, human primary neutrophils, and human primary natural killer (NK) cells. Cells were harvested, plated at 10⁶/ml in a 96 well plate, and incubated in 100 ul PBS containing 2% FBS, 2 mM EDTA and 10 μg/ml Mab and Fc blocking reagent for 1 hour in ice. Cells were washed twice and incubated in 100 ul PBS containing 2% FBS, 2 mM EDTA and 5 ug/ml PE-conjugated secondary antibody for 30 minutes on ice. Cells were washed twice in cold PBS and analyze by flow cytometry on a BD FACS Canto. Data analysis and calculation of MFI values was performed with FlowJo (TreeStar) software version 10.0.7.
(§2) Percent positive binding and mean fluorescent intensity (MFI) values for cell types bound by Siglec-7 antibodies are listed in Table 4A. Binding is compared to an isotype control. The antibodies bind to human primary monocytes, human primary dendritic cells, and human primary macrophages. In Table 4A, “Buffer” refers to cells that were treated only with the PBS buffer described supra; “Secondary Ab” refers to cells that were treated only with the PE-conjugated secondary antibody; “mIgG1,” “mIgG2a,” and “mIgG2b” refer to isotype control antibodies; and “RDS7” refers to commerically available anti-Siglec-7 antibody Mab1138 (R&D Systems; Cat. No. MAB 1138).

[4] = target: T1, human Siglec-7 expressed on human cells …; assay: FACS, human primary macrophages, 10 ug/ml mAb
Protocol: as §1, §2

[5] = target: T1, human Siglec-7 expressed on human cells …; assay: FACS, human primary dendritic cells, 10 ug/ml mAb
Protocol: as §1, §2

[6] = target: T2, Histidine-tagged human Siglec-7 (NovoProtein) (human, UniProt Q9Y286 19-357, limits assumed); assay: SPR (BiaCore T200, 25 C), antibody captured on anti-mouse IgG, Siglec-7-His 25 nM, single-concentration kinetics
T2 construct: Bought protein; also called purified Siglec-7-his tagged protein; not shown: histidine tag
Protocol: (§3) SPR data was collected at a rate of 10 Hz at 25′ C on a BiaCore T200 instrument. Data analysis was performed using BiaCore T200 Evaluation Software, version 2.0. HBS-EP+ (100 mM HEPES, 1.5 M NaCl, 30 mM EDTA, 0.5% v/v Surfactant P20, pH 7.4) was used as running buffer and for preparing reagents.
(§4) Mouse-derived antibodies (25 nM) against Siglec-7 were captured (60 s contact time, 30 μL/min flow rate, 0 s stabilization time) on a CM5 sensor chip (GE Healthcare) immobilized with anti-mouse IgG. Histidine-tagged human Siglec-7 (NovoProtein) was then flowed over the captured anti-Siglec-7 surface (120 s contact time, 30 μL/min flow rate, 300 s dissociation time). Concentration of antigen ranged from 5 nM to 100 nM, depending on information obtained from an initial screen. Duplicate single-concentration trials were performed and bracketed by a blank (0 nM antigen) sample. The chip surface was regenerated in between cycles using 10 mM glycine-HCl, pH1.7 (60 s contact time, 30 μL/min flow rate, 60 s stabilization time). The resulting SPR signal was obtained as the difference in response from measurements performed on a blank flow cell.
(§5) Affinity constants (KD) were calculated from the ratio kd/kₐ. For one antibody (clone 1E8), we validated the single-concentration analysis with a multiple-concentration approach (five concentrations of antigen used, plus one blank).

[7] = target: T3, Siglec-7-Fc (plate immobilized) (human, UniProt Q9Y286 19-357, limits assumed); assay: RBC solid adhesion assay, plate-coated Siglec-7-Fc, antibody 0.5 or 1.0 ug/ml; % of RBC binding without antibody
T3 construct: also called Siglec-7-Fc protein; immobilized Siglec-7; not shown: Fc part
Protocol: To determine which antibodies compete with ligand binding to Siglec-7, a red blood cell (RBC) solid adhesion assay was carried out in accordance with standard protocols (Kelm et al., Current Biology, 1994). Red blood cells are highly decorated with glycoproteins containing sialic acids: therefore, the ability of an antibody to block RBC binding to immobilized Siglec-7 can be used to determine ligand interference. Briefly, 5 μg/ml Siglec-7-Fc was coated overnight at RT in 96 well Immunolon plates, then washed with PBS, blocked for one hour with binding buffer (PBS containing %0.25 BSA 1 mM CaCl₂), Siglec-7 antibodies (0.5 μg/ml or 1.0 μg/ml) were bound for one hour at RT with gentle rocking. After removal of unbound antibody, red blood cells were added to each well at a concentration of 3.0×10⁶ cells per ml and incubated at RT for one hour. Unbound RBCs were then carefully washed off 3× with PBS, and water was added to each well for hypotonic lysis of bound RBCs. The plate was transferred to −80° C. for 10 minutes, followed by 37° C. for 15 minutes. Bound RBCs were detected by peroxidase activity, followed by 2N sulfuric acid to stop the reaction. Signal was detected at […]. Data was calculated as a percent of RBC binding to plate bound Siglec-7-Fc in the absence of antibody.

[8] = target: T2, Histidine-tagged human Siglec-7 …; assay: SPR (BiaCore T200, 25 C), antibody captured on anti-mouse IgG, Siglec-7-His 20 nM, single-concentration kinetics
Protocol: as §3, §4, §5

T1 sequence (Q9Y286 19-467): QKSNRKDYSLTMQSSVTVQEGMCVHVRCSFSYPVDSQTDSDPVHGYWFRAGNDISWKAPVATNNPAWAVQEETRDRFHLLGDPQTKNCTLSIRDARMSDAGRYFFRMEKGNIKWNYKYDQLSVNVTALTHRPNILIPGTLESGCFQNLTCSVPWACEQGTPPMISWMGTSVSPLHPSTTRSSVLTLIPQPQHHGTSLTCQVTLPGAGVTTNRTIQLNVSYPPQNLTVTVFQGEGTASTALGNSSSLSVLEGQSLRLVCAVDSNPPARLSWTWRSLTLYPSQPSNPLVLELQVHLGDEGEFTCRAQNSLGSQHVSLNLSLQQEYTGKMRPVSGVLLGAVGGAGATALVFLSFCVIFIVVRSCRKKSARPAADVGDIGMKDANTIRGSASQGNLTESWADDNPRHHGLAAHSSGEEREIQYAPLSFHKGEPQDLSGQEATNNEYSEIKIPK
T3 sequence (Q9Y286 19-357 limits assumed): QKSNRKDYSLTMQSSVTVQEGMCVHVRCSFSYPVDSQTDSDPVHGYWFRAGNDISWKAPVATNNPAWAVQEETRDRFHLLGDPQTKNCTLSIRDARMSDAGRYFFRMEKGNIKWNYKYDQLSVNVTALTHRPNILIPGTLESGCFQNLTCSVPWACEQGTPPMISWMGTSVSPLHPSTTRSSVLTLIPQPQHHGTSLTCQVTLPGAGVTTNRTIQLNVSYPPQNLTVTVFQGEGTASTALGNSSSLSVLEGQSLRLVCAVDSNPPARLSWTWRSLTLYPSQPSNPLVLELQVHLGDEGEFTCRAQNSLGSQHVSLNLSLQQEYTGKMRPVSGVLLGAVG
T2 sequence (Q9Y286 19-357 limits assumed): as above

Binder | Percent Siglec-7 Surface Expression, DCs [1] [%] | Percent Siglec-7 Surface Expression, Monocytes [1] [%] | Percent Siglec-7 Surface Expression, U937 cells [1] [%] | Percent Siglec-7 Surface Expression, Macrophages [2] [%] | Percent Siglec-7 Surface Expression, Microglia [2] [%] | Percent Siglec-7 Surface Expression, NK cells [2] [%] | % Positive [3] [%] | MFI [3] | % Positive [4] [%] | MFI [4] | % Positive [5] [%] | MFI [5] | Kd [6] [nM] | Percent RBC Binding to Siglec-7 [7] [%] | Kd [8] [nM]
B1 | 19.9 | 23.9 | 82.4 | 7.4 | 34.2 | 108 | 98.7 | 380 | 99.6 | 4040 | 99.6 | 2520 | 1 | 26.8 | –
B2 | 11 | 23.7 | 76.3 | 8.3 | – | 77.1 | 97.9 | 407 | 99.7 | 2840 | 99.7 | 956 | – | 89.5 | 1
B3 | 1100 | 140 | 121 | 95.7 | 106 | 114 | 99.4 | 577 | 99.5 | 25700 | 99.7 | 10200 | – | 14.5 | 0.1
